Data as given in article doi:10.1101/2024.12.25.630315 (bioRxiv, 2024).

Legend:
Nectin-4 [1] = molecular target: T1, Nectin-4 (Homo sapiens, UniProt Q96NY8); test: [^68Ga]AJ647 binding to SCaBER cells with and without EV; details: SCaBER cells (Nectin-4 positive); EV 60 nM for 15 min; P<0.0001
T1 construct: host or cells: HT1376, SCaBER, T24, RT112, UC9, UC14 urothelial carcinoma cells; HT1376 xenografts in NSG mice
T1 sequence (Q96NY8 32-510): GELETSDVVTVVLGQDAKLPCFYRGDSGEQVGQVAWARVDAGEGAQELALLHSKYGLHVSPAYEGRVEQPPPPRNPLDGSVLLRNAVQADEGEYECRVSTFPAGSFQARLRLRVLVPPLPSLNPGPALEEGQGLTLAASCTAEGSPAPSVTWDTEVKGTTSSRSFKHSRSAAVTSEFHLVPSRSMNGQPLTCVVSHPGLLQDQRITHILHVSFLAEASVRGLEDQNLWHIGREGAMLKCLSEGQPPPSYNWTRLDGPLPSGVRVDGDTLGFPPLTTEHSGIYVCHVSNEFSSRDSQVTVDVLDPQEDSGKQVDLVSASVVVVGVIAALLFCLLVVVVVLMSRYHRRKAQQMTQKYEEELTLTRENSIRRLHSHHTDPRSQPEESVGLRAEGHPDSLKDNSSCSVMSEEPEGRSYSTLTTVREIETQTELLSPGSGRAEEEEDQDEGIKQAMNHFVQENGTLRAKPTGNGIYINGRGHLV

Nectin-4 [2] = molecular target: T1, Nectin-4; test: In vivo Nectin-4 engagement by EV, HT1376 tumors (ex vivo biodistribution of [^68Ga]AJ647); set-up: species or system mouse; details: NSG mice, single i.v. dose of EV (15 mg/kg in text, 20 mpk in legend/methods) 24 hours before tracer, ex vivo biodistribution 60 min, n=5, P < 0.0001
Method: To validate imaging studies, ex vivo biodistribution studies were conducted in mice with tumors of size 100–200 mm^3. Mice received ~50 μCi (1.85 MBq) of [^68Ga]AJ647 in […] of 5% ethanol in saline intravenously and mice were sacrificed at 5–180 min after [^68Ga]AJ647 injection for pharmacokinetic evaluation (n=4 per timepoint). In all other studies, 60 min time-point was chosen. Selected tissues (Blood, Skin, Muscle, Bone, Salivary glands, Tumor, Lungs, Heart, Liver, Pancreas, Spleen, Kidneys, Bladder, Testicles) were collected, weighed, counted, and their %IA/g values calculated as described previously (PMID: 37793856). For EV pharmacodynamics studies, fewer organs were harvested to accommodate more number of mice.
Male NSG mice were implanted subcutaneously with HT1376 and SCaBER cells (4 million each) on the right and left rostral end, respectively. On day 25 after cell inoculation (average tumor volume=200±35 mm^3), mice were randomized and treated with a single dose of either saline or 20 mpk EV ADC injected intravenously (volume not exceeding 300 μL) or with 200 μL saline (n=7/group). 24 hours following the EV dose, [^68Ga]AJ647 PET scans (n=2/group) were acquired and ex vivo biodistribution (n=5/group) was performed using the protocols mentioned above.

Nectin-4 [3] = molecular target: T1, Nectin-4; test: EV dose-time Nectin-4 pharmacodynamics by [^68Ga]AJ647 PET, HT1376 tumors; assay type: in vivo, mouse
Method: Mice with tumor volume of ~100–150 mm^3 were injected with ~[…] (7.4 MBq) of [^68Ga]AJ647 in […] of 5% ethanol in saline intravenously and anesthetized under 2.5% isoflurane. PET-CT images were acquired at 60 minutes after radiotracer injection at 5 min/bed in an ARGUS small-animal PET/CT scanner (Sedecal, Madrid, Spain) as described (n=3 unless otherwise noted). PET-MR images were acquired on a simultaneous 7T Bruker PET-MR scanner. Dynamic imaging was conducted to evaluate pharmacokinetics of [^68Ga]AJ647. [^68Ga]AJ647 was injected (with help of catheter) after mice was anesthetized under 2.5% isoflurane on the equipment bed. All PET data were reconstructed using the two-dimensional ordered subsets-expectation maximization algorithm (2D-OSEM) and corrected for radioactive decay and dead time. The SUV values were calculated by finding percent of injected activity (%IA) based on a calibration factor obtained from a known radioactive quantity, then normalizing by mice weight. Amide software was used to derive SUV values by drawing region of interest to closely fit tumors. For change in accessible Nectin-4 levels following EV treatment, ΔSUV was calculated by subtracting baseline (pre-treatment) uptake from post-therapy uptake of [^68Ga]AJ647. Target engagement was quantified by normalizing this change by initial SUV in same subject controls. Image fusion, visualization, and 3D rendering were accomplished using Amira 2020.3.1® (FEI, Hillsboro, OR). The dose-time pharmacodynamics of Nectin-4 following EV treatment was studied at doses 6, 9 and 15 mpk. Experiment involving PET imaging was performed first. Male NSG mice were inoculated with 4 million HT1376 cells at day 0. On day 23 (average tumor volume=150±30 mm^3), mice were randomized to receive either saline, or a single dose of 6, 9 or 15 mpk EV intravenously (n=3 for each dose and n=2 for saline). Mice (n=2) from each dose group and saline were imaged on day 1, 3 and 6 following EV treatment. Once PET imaging results were analyzed, ex vivo distribution experiment was performed with n=16–18 for each dose and n=10 for saline. Treated mice (n=8–9 per dose per time-point) along with saline controls (n=5 per time-point) were sacrificed on day 1 and day 6. Biodistribution studies were performed at 60-minute after [68Ga]AJ647 injection as described above.

## enfortumab vedotin [EV]
Nectin-4 [1]
  effect of EV on [^68Ga]AJ647 binding: significantly reduced
Nectin-4 [2]
  reduction in [^68Ga]AJ647 uptake in EV-treated tumors compared to controls: 84%
Nectin-4 [3]; day 1, all EV doses (6, 9, 15 mg/kg single i.v.)
  Nectin-4 engagement by EV ([^68Ga]AJ647 PET tumor uptake): full occupancy
Nectin-4 [3]; day 3, 6 mg/kg
  Nectin-4 engagement by EV ([^68Ga]AJ647 PET tumor uptake): increase in [^68Ga]AJ647 uptake
Nectin-4 [3]; day 3, 9 and 15 mg/kg
  Nectin-4 engagement by EV ([^68Ga]AJ647 PET tumor uptake): sustained target engagement
Nectin-4 [3]; day 6, 6 mg/kg
  Nectin-4 engagement by EV ([^68Ga]AJ647 PET tumor uptake): significant increase in [^68Ga]AJ647 uptake
Nectin-4 [3]; day 6, 9 mg/kg
  Nectin-4 engagement by EV ([^68Ga]AJ647 PET tumor uptake): partial engagement
Nectin-4 [3]; day 6, 15 mg/kg
  Nectin-4 engagement by EV ([^68Ga]AJ647 PET tumor uptake): persistent high-level engagement
